How the values were obtained:
[1] = biological target: TgVps26-HA (Toxoplasma gondii); test: affinity purification with mass spectrometry; absolute quantification of TgVps35, TgVps26 and TgVps29 in the immunoprecipitates by microLC-SRM with stable isotope-labelled standard peptides, three proteotypic peptides per protein
[2] = biological target: TgVps29-cMyc (Toxoplasma gondii); test: as above

TgVps35-HA (natural protein)
stoichiometry N (TgVps35 per TgVps26) [1]: 1
stoichiometry N (TgVps35 per TgVps29) [2]: 3
